The text below walks through data of paper PMC7824956, “Structural and Biochemical Characterization of a Cold-Active PMGL3 Esterase with Unusual Oligomeric Structure” (Biomolecules, 2021).

“And” between values parts separate entries of the source, which are not always exact repeats. Equal values may be shown once.

The target in one series is T1, PMGL3 (unidentified, UniProt Z9N994FV33).
T1 construct: recombinant in E. coli, pET32a (stated for mutants), C-terminal hexahistidine tag; 302 residues modelled plus last 10 C-terminal residues invisible; mainly dimer in solution, tetramer in crystal; catalytic motif 147GESAG151, E243, H273
T1 sequence (Z9N994FV33 1-304): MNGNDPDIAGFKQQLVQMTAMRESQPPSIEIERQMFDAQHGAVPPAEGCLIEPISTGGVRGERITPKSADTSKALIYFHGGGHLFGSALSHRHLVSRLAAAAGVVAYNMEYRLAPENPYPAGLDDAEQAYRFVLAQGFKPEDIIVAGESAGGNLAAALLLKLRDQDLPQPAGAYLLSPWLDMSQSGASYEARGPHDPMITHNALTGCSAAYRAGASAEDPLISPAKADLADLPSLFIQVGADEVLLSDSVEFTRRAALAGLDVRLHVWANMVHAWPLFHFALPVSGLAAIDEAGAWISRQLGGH
Put plainly: esterase activity, Michaelis-Menten nonlinear regression. The class given is biochemical, permafrost metagenome. As to conditions: 50 mM Tris-HCl pH 8.0, 100 mM NaCl, 30 °C; 0.2-2 mM substrate. An excerpt:
(§1) esterase activity, Michaelis-Menten nonlinear regression on PMGL3

The target in series [1] is PMGL3 D7N mutant (not stated (Siberian permafrost metagenomic DNA library)). Put plainly: SEC; samples after incubation for 30 min and/or 1 h at 40 °C; Superdex 200 10/300 GL, 0.4 mL/min, 100 mM Tris-HCl pH 8.0, 150 mM NaCl.
Series [2] shares this target. Kind of series: SEC; freshly isolated samples; Superdex 200 10/300 GL, 0.4 mL/min, 100 mM Tris-HCl pH 8.0, 150 mM NaCl; column calibrated with protein standards.
The subject of series [3] is T2, CCCC(=O)Oc1ccc([N+](=O)[O-])cc1.
T2 construct: recombinant in E. coli, pET32a (stated for mutants), C-terminal hexahistidine tag; 302 residues modelled plus last 10 C-terminal residues invisible; mainly dimer in solution, tetramer in crystal; catalytic motif 147GESAG151, E243, H273
Kind of series: esterase activity, Michaelis-Menten nonlinear regression. As to conditions: 50 mM Tris-HCl pH 8.0, 100 mM NaCl, 30 °C, 0.2-2 mM substrate. The format is biochemical, permafrost metagenome.
From the text: as §1

The target of series [4] is cold-active esterase PMGL3, wild type (not stated (Siberian permafrost metagenomic DNA library)). Put plainly: SEC; sample after storage for 3 months at 4 °C; Superdex 200 10/300 GL, 0.4 mL/min, 100 mM Tris-HCl pH 8.0, 150 mM NaCl.
Series [5] has the same target. Kind of series: SEC; samples after incubation for 30 min and/or 1 h at 40 °C; Superdex 200 10/300 GL, 0.4 mL/min, 100 mM Tris-HCl pH 8.0, 150 mM NaCl.
For series [6] the target is unchanged. Kind of series: SEC; freshly isolated samples; Superdex 200 10/300 GL, 0.4 mL/min, 100 mM Tris-HCl pH 8.0, 150 mM NaCl; column calibrated with protein standards.
The target is the same in series [7]. The description is as above. This is another data set of the same source.
Series [8] shares this target. Kind of series: crystal structure; X-ray, space group C2, two subunits in the asymmetric unit; crystals from 0.1 M sodium citrate pH 5.6, 20% isopropanol, 20% PEG 4000; oligomers from crystal contact analysis (PDBePISA).
Series [9] shares this target. The description is as above. The source holds these as a separate data set.
Series [10] addresses PMGL3 E47Q mutant (not stated (Siberian permafrost metagenomic DNA library)). Kind of series: SEC; samples after incubation for 30 min and/or 1 h at 40 °C; Superdex 200 10/300 GL, 0.4 mL/min, 100 mM Tris-HCl pH 8.0, 150 mM NaCl.
For series [11] the target is unchanged. Put plainly: SEC; freshly isolated samples; Superdex 200 10/300 GL, 0.4 mL/min, 100 mM Tris-HCl pH 8.0, 150 mM NaCl; column calibrated with protein standards.
The target in series [12] is PMGL3 K67A mutant (not stated (Siberian permafrost metagenomic DNA library)). Kind of series: SEC; samples after incubation for 30 min and/or 1 h at 40 °C; Superdex 200 10/300 GL, 0.4 mL/min, 100 mM Tris-HCl pH 8.0, 150 mM NaCl.
For series [13] the target is unchanged. Put plainly: SEC; freshly isolated samples; Superdex 200 10/300 GL, 0.4 mL/min, 100 mM Tris-HCl pH 8.0, 150 mM NaCl; column calibrated with protein standards.

Take `CCCC(=O)Oc1ccc([N+](=O)[O-])cc1` [p-nitrophenyl butyrate]: the Km at PMGL3 is 980 ± 90 µM.

For PMGL3 D7N mutant (enzyme), the stoichiometry N is 4 in series [1]; 2 and 4 in series [2].

PMGL3 (unidentified; K67A): in series [3], the Km was 940 ± 60 µM, the Vmax came to 102 µmol/min/mg and the kcat came out at 55.5 ± 1.4 s⁻¹.

With “cold-active esterase PMGL3, wild type (enzyme)”, the stoichiometry N in [4] was 4; in [5], 4; in series [6] it was 2; in [7] it was 4; in series [8] it was 2; in series [9] it was 4.

For the compound PMGL3 (unidentified; E47Q), in series [3], the Km was 1070 ± 90 µM, the Vmax came out at 117 µmol/min/mg and the kcat was determined as 63.7 ± 2.07 s⁻¹.

For the compound PMGL3 (unidentified; D7N), in series [3], the Km was 840 ± 70 µM, the Vmax was 157 µmol/min/mg and the kcat was found to be 85 ± 3.15 s⁻¹.

Regarding PMGL3 E47Q mutant (enzyme), the stoichiometry N in [10] was 4; in series [11] it was 4 and 2.

PMGL3 K67A mutant (enzyme): the stoichiometry N in series [12] is 4; in series [13], 2.
